Measurements published in US20060014937A1.
Residue numbers refer to the chain shown, from its start. One block for each binder: values may come before it.

Target: HBV S-surface antigen (International Enzyme Inc., USA) adr type (hepatitis B virus (adr type))
Assay: competition ELISA in solution (Friguet method): antibody pre-mixed with 10^-11 to 10^-6 M antigen, free antibody caught on antigen-coated plate

Ka: 1e+08 M⁻¹
B1: humanized antibody YHB1110-13 (antibody, V domains shown)
VH: QVQLKQSGPGLVKPSQTLSLTCTVSGFSLSTYGVQWVRQPPGKGLEWLGVIWSGGNTDYNAAFISRVTISKDTSKNQVSLKLSSVTAADTAVYYCARARYFDVWGAGTTVTVSS
VL: QAVVTQEPSLTVSPGGTVTLTCRSSTGAITTNNFANWFQQKPGQAFRGLIGDTNNRVPGVPARFSGSLLGNKAALTITGAQPEDEAEYYCALWYNNWVFGGGTKLTVLG

Ka: 7e+07 M⁻¹
B2: humanized antibody YHB1110-15 (antibody, V domains shown)
VH: B1 VH
VL: B1 VL with L69I, N71D
